Assays:
[1] = biological target: E3 ligase CDC20; conditions: read-out: KD for CDC20; cited from earlier work
[2] = biological target: T1, USP3 ZnF-UBD (Homo sapiens, UniProt Q9Y6I4); assay: SPR binding to USP3 ZnF-UBD
T1 sequence (Q9Y6I4 1-131): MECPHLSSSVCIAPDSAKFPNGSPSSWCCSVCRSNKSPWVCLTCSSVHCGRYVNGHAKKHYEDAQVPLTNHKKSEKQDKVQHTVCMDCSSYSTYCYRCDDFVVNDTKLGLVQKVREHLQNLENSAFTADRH

[3] = biological target: T2, HDAC6 ZnF-UBD (Homo sapiens, UniProt Q9UBN7); assay: SPR binding to HDAC6 ZnF-UBD
T2 sequence (Q9UBN7 1109-1215): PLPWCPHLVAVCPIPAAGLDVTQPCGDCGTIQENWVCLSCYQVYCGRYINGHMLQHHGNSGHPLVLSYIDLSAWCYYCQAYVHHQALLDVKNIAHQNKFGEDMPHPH

[4] = biological target: T3, USP13 ZnF-UBD (Homo sapiens, UniProt Q92995); assay: SPR binding to USP13 ZnF-UBD
T3 sequence (Q92995 183-307): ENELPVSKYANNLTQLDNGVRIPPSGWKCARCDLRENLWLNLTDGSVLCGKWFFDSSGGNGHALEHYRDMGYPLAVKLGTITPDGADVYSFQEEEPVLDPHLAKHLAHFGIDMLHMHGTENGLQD

[5] = biological target: T4, USP5 ZnF-UBD (Homo sapiens, UniProt P45974); assay: SPR binding to USP5 ZnF-UBD
T4 sequence (P45974 171-290): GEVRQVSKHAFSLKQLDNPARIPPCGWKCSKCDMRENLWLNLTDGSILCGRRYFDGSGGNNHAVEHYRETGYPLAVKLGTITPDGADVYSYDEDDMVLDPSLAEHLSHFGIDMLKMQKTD

[6] = biological target: USP16 ZnF-UBD (Homo sapiens, UniProt Q9Y5T5); assay: SPR binding to USP16 ZnF-UBD
Chain of USP16 ZnF-UBD (Q9Y5T5 25-185): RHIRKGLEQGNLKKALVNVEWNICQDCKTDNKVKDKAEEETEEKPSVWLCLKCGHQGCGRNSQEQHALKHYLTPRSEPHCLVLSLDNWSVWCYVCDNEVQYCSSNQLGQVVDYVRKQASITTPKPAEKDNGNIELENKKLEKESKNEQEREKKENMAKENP

[7] = biological target: T5, USP49 ZnF-UBD (Homo sapiens, UniProt Q70CQ1); assay: SPR binding to USP49 ZnF-UBD
T5 sequence (Q70CQ1 1-115): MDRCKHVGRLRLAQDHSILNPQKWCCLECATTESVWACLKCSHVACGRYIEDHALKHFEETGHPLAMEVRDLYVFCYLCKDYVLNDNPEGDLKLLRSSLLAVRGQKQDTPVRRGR

[8] = biological target: T6, BRAP ZnF-UBD (Homo sapiens, UniProt Q7Z569); assay: SPR binding to BRAP ZnF-UBD
T6 sequence (Q7Z569 304-390): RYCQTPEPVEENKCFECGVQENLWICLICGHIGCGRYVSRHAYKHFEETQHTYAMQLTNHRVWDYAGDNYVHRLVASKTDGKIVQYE

[9] = biological target: T7, USP51 ZnF-UBD (Homo sapiens, UniProt Q70EK9); assay: SPR binding to USP51 ZnF-UBD
T7 sequence (Q70EK9 176-305): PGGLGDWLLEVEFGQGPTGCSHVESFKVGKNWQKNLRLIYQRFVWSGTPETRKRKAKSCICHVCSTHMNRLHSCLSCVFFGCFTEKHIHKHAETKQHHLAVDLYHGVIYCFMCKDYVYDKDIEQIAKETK

[10] = biological target: T8, USP39 ZnF-UBD (Homo sapiens, UniProt Q53GS9); assay: SPR binding to USP39 ZnF-UBD
T8 sequence (Q53GS9 84-194): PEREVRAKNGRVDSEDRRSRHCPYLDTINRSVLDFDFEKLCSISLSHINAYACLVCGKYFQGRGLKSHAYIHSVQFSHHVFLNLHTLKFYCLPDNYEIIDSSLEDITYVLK

[11] = biological target: USP20 ZnF-UBD (Homo sapiens, UniProt Q9Y2K6); assay: SPR binding to USP20 ZnF-UBD
Chain of USP20 ZnF-UBD (Q9Y2K6 1-141): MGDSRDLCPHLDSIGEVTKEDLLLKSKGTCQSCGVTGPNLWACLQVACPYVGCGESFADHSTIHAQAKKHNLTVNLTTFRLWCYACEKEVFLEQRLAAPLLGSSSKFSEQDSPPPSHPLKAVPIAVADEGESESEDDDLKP

[12] = biological target: T9, USP33 ZnF-UBD (Homo sapiens, UniProt Q8TEY7); assay: SPR binding to USP33 ZnF-UBD
T9 sequence (Q8TEY7 29-134): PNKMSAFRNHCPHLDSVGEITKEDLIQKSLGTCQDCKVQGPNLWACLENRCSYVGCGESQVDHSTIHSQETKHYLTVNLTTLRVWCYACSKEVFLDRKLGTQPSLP

Cc1ncc([N+](=O)[O-])n1CCOC(=O)NC(Nc1ncccn1)C(Cl)(Cl)Cl (stereo not shown) [Apcin]
10 µM: Kd [1]

O=C(O)CNc1ncnc2ccccc12 [Compound 25]
191 µM: Kd ([2]; KD (µM) USP3)

Ub-RGGdel: C-terminal RGG-deleted Ub construct, negative control in the SPR assay
No binding: KD (µM) USP3 [2] | KD (µM) HDAC6 [3] | KD (µM) USP13 [4] | KD (µM) USP5 [5] | KD (µM) USP16 [6] | KD (µM) USP49 [7] | KD (µM) BRAP [8] | KD (µM) USP51 [9] | KD (µM) USP39 [10] | KD (µM) USP20 [11] | KD (µM) USP33 [12]

— article PMC10785082 (ACS Omega, 2023)
